Test results from US20210355194A1 (TWIST BIOSCIENCE, published 2021).

B1: variant 5-51 (Fc fusion)
VHH: EVQLVESGGGLVQPGGSLRLSCAASGRPNSINWMGWFRQAPGKERQFVATITPGGNTNYADSVKGRFTISADNSKNTAYLLMNSLKPEDTAVYYCAAAAGTTWYGTLYEYDWGQGTLVTVSS
B2: 10-1 (VHH)
VHH: EVQLVESGGGLVQPGGSLRLSCAASGLSSPPFDDFPMGWFRQAPGKEREFVSSIYSDDGDSMYADSVKGRFTISADNSKNTAYLQMNSLKPEDTAVYYCARQTFDFWSASLGGNFWYFDLWGQGTLVTVSS
B3: 9-6 (VHH)
VHH: EVQLVESGGGLVQPGGSLRLSCAASGRTFSRFAMGWFRQAPGKEREFVAAIRWSGGRTVYADSVKGRFTISADNSKNTAYLQMNSLKPEDTAVYYCAIEPGTIRNWRNRVPFARGNFGWGQGTLVTVSS
B4: 10-44 (VHH)
VHH: EVQLVESGGGLVQPGGSLRLSCAASGRTFRRYTMGWFRQAPGKEREFVAVISWSGGSTKYADSVKGRFTISADNSKNTAYLQMNSLKPEDTAVYYCARKGRWSGMNVWGQGTLVTVSS
B5: 10-56 (VHH)
VHH: EVQLVESGGGLVQPGGSLRLSCAASGHTFRNYGMGWFRQAPGKEREFVAAITSSGSTNYADSVKGRFTISADNSKNTAYLQMNSLKPEDTAVYYCATVPPPRRFLEWLPRRLTYTWGQGTLVTVSS
B6: variant 6-22 (Fc fusion)
VHH: EVQLVESGGGLVQPGGSLRLSCAASGRTFSEVVMGWFRQAPGKEREFVATIHSSGSTSYADSVKGRFTISADNSKNTAYLQMNSLKPEDTAVYYCVRVTSDYSMDSWGQGTLVTVSS
B7: variant 2-9 (antibody, V domains shown)
VH: EVQLLESGGGLVQPGGSLRLSCAASGFTFPRYAMSWVRQAPGKGLEWVSTISGSGSTTYYADSVKGRFTISRDNSKNTLYLQMNSLRAEDTAVYYCARLIDAFDIWGQGTLVTVSS
VL: DIQMTQSPSSLSASVGDRVTITCRASQRIGTYLNWYQQKPGKAPKLLIYAASNLEGGVPSRFSGSGSGTDFTLTISSLQPEDFATYYCQQNYSTTWTFGQGTKVEIK
B8: variant 6-6 (Fc fusion)
VHH: EVQLVESGGGLVQPGGSLRLSCAASGTTLDYYAMGWFRQAPGKERELVAAISWSGGSTAYADSVKGRFTISADNSKNTAYLQMNSLKPEDTAVYYCAREDYYDSSGYSWGQGTLVTVSS
B9: variant 5-63 (Fc fusion)
VHH: EVQLVESGGGLVQPGGSLRLSCAASGFSLDYYDMGWFRQAPGKEREFVAALGWSGGSTDYADSVKGRFTISADNSKNTAYLQMNSLKPEDTAVYYCAAGNGGRYGIVERWGQGTLVTVSS
B10: 10-2 (VHH)
VHH: EVQLVESGGGLVQPGGSLRLSCAASGGTFSSYSMGWFRQAPGKEREFVSAISWIIGSGGTTNYADSVKGRFTISADNSKNTAYLQMNSLKPEDTAVYYCTAGAGDSWGQGTLVTVSS
B11: variant 6-13 (Fc fusion)
VHH: EVQLVESGGGLVQPGGSLRLSCAASGLTFNDYAMGWFRQAPGKEREFVAHIPRSTYSPYYADSVKGRFTISADNSKNTAYLQMNSLKPEDTAVYYCAFLVGPQGVDHGAFDVWGQGTLVTVSS
B12: variant 6-82 (Fc fusion)
VHH: EVQLVESGGGLVQPGGSLRLSCAASGSSLDAYGMGWFRQAPGKEREFVAAISWGGGSIYYADSVKGRFTISADNSKNTAYLQMNSLKPEDTAVYYCARLSQGMVALDYWGQGTLVTVSS
B13: 10-19 (VHH)
VHH: EVQLVESGGGLVQPGGSLRLSCAASGRTFRSYGMGWFRQAPGKEREFVASISRSGTTMYADSVKGRFTISADNSKNTAYLQMNSLKPEDTAVYYCARRGLLQWFGAPNSWFDPWGQGTLVTVSS
B14: variant 6-42 (Fc fusion)
VHH: EVQLVESGGGLVQPGGSLRLSCAASGDTYGSYWMGWFRQAPGKEREFVAVITSGGSTNYADSVKGRFTISADNSKNTAYLQMNSLKPEDTAVYYCTHVQNSYYYAMDVWGQGTLVTVSS
B15: 9-2 (VHH)
VHH: EVQLVESGGGLVQPGGSLRLSCAASGSFSIAAMGWFRQAPGKEREFVATINYSGGGTYYADSVKGRFTISADNSKNTAYLQMNSLKPEDTAVYYCAAVNTFDESAYAAFACYDVVWGQGTLVTVSS
B16: variant 5-32 (Fc fusion)
VHH: EVQLVESGGGLVQPGGSLRLSCAASGFTPDNYAMGWFRQAPGKEREFVAALGWSGVTTYHYYADSVKGRFTISADNSKNTAYLQMNSLKPEDTAVYYCASDESDAANWGQGTLVTVSS
B17: variant 5-38 (Fc fusion)
VHH: EVQLVESGGGLVQPGGSLRLSCAASGRTFSMHAMGWFRQAPGKERELVASISSQGRTNYADSVKGRFTISADNSKNTAYLQMNSLKPEDTAVYYCAAEVRNGSDYLPIDWGQGTLVTVSS
B18: variant 6-32 (Fc fusion)
VHH: EVQLVESGGGLVQPGGSLRLSCAASGFTLDYYDMGWFRQAPGKEREFVALISWSGGSTYYADSVKGRFTISADNSKNTAYLQMNSLKPEDTAVYYCATDFYGWGTRERDAFDIWGQGTLVTVSS
B19: variant 6-91 (Fc fusion)
VHH: EVQLVESGGGLVQPGGSLRLSCAASGRTFGNYAMGWFRQAPGKEREFVASISSSGVSKHYADSVKGRFTISADNSKNTAYLQMNSLKPEDTAVYYCVRFGSSWARDLDQWGQGTLVTVSS
B20: 10-29 (VHH)
VHH: EVQLVESGGGLVQPGGSLRLSCAASGRTFTSYRMGWFRQAPGKEREFVAEISSSGGYTYYADSVKGRFTISADNSKNTAYLQMNSLKPEDTAVYYCARVGPLRFLAQRPRLRPDYWGQGTLVTVSS
B21: variant 2-1 (antibody, V domains shown)
VH: EVQLLESGGGLVQPGGSLRLSCAASGFTFSNYATDWVRQAPGKGLEWVSIISGSGGATYYADSVKGRFTISRDNSKNTLYLQMNSLRAEDTAVYYCAKGGYCSSDTCWWEYWLDPWGQGTLVTVSS
VL: DIQMTQSPSSLSASVGDRVTITCRASQSIHRFLNWYQQKPGKAPKLLIYAASNLHSGVPSRFSGSGSGTDFTLTISSLQPEDFATYYCQQSYGLPPTFGQGTKVEIK
B22: 9-10 (VHH)
VHH: EVQLVESGGGLVQPGGSLRLSCAASGRMFSSRSMGWFRQAPGKEREFVALINRSGGSQFYADSVKGRFTISADNSKNTAYLQMNSLKPEDTAVYYCAARRWIPPGPIWGQGTLVTVSS
B23: 10-51 (VHH)
VHH: EVQLVESGGGLVQPGGSLRLSCAASGRFFSTRVMGWFRQAPGKEREFVARIWPGGSTYYADSVKGRFTISADNSKNTAYLQMNSLKPEDTAVYYCARDRGIFGVSRWGQGTLVTVSS
B24: variant 5-8 (Fc fusion)
VHH: EVQLVESGGGLVQPGGSLRLSCAASGRPFSEYTMGWFRQAPGKEREFVSSIHWGGRGTNYADSVKGRFTISADNSKNTAYLQMNSLKPEDTAVYYCAAELHSSDYTSPGAYAWGQGTLVTVSS
B25: variant 3-10 (antibody, V domains shown)
VH: EVQLLESGGGLVQPGGSLRLSCAASGFTFRSHAMSWVRQAPGKGLEWVSSISGGGASTYYADSVKGRFTISRDNSKNTLYLQMNSLRAEDTAVYYCARVKYLTTSSGWPRPYFDNWGQGTLVTVSS
VL: DIQMTQSPSSLSASVGDRVTITCRASQSIRKYLNWYQQKPGKAPKLLIYASSTLQRGVPSRFSGSGSGTDFTLTISSLQPEDFATYYCQQSLSTPFTFGGGTKVEIK
B26: variant 6-24 (Fc fusion)
VHH: EVQLVESGGGLVQPGGSLRLSCAASGFTLDYYAMGWFRQAPGKEREFVAAINWSGDNTHYADSVKGRFTISADNSKNTAYLQMNSLKPEDTAVYYCARAPFYCTTTKCQDNYYYMDVWGQGTLVTVSS
B27: 10-6 (VHH)
VHH: EVQLVESGGGLVQPGGSLRLSCAASGTTLTFRIMGWFRQAPGKEREFVPAISSTGLASYTDSVKGRFTISADNSKNTAYLQMNSLKPEDTAVYYCSKDRAPNCFACCPNGFDVWGQGTLVTVSS
B28: 10-60 (VHH)
VHH: EVQLVESGGGLVQPGGSLRLSCAASGIPASMYLGWFRQAPGKEREFVAAITSGGRTSYADSVKGRFTISADNSKNTAYLQMNSLKPEDTAVYYCAKRKKRGPLWFGGGGWGYWGQGTLVTVSS

How the values were obtained:
[1] = target: SARS-CoV-2 spike on live SARS-CoV-2 virus (SARS-CoV-2, UniProt P0DTC2 14-1273); experiment: cell-based or functional assay
[2] = target: T1, Acro SARS-CoV-2 (COVID-19) S1 protein (SARS-CoV-2, UniProt P0DTC2 16-685); experiment: SPR
T1 construct: also called SARS-CoV-2 S1

[3] = target: SARS-CoV-2 membrane protein on expressing cells (SARS-CoV-2, UniProt P0DTC5 1-222)
[4] = target: T2, COVID S1 RBM Fc fusion (Antigen 2) (SARS-CoV-2, UniProt P0DTC2 437-508); experiment: phage ELISA
T2 construct: domain: S1 RBM

[5] = target: T3, COVID S1 RBD Fc fusion (Antigen 1) (SARS-CoV-2, UniProt P0DTC2 319-541); experiment: phage ELISA
T3 construct: domain: S1 RBD

Binder | EC80 [1] [µg/mL] | Kd [2] [nM] | MFI Ratio [3] | further results
B1 | 388 | 25.5 |  | 
B2 |  |  | 1.08 | 
B3 |  |  | 1.47 | 
B4 |  |  | 1.46 | 
B5 |  |  | 1.39 | 
B6 | 103 | 25.6 |  | 
B7 |  |  |  | specificity ELISA, fold over background [4]: 0.8 fold over background; specificity ELISA, percent binding relative to Acro S1 [4]: 3.5%; specificity ELISA, fold over background [5]: 24.3 fold over background; specificity ELISA, percent binding relative to Acro S1 [5]: 101%
B8 | 24.4 | 6.4 |  | 
B9 | 14.2 | 10.5 |  | 
B10 |  |  | 1.25 | 
B11 | 25.7 | 25.3 |  | 
B12 | 108 | 7.1 |  | 
B13 |  |  | 1.54 | 
B14 | 0.734 | 10.1 |  | 
B15 |  |  | 1.3 | 
B16 | 180 | 22.4 |  | 
B17 | 1.5 |  |  | 
B18 | 60.6 | 27.2 |  | 
B19 | 240 |  |  | 
B20 |  |  | 1.48 | 
B21 |  |  |  | specificity ELISA, fold over background [4]: 1.5 fold over background; specificity ELISA, percent binding relative to Acro S1 [4]: 3.9%; specificity ELISA, fold over background [5]: 36.8 fold over background; specificity ELISA, percent binding relative to Acro S1 [5]: 93.7%
B22 |  |  | 1.52 | 
B23 |  |  | 1.47 | 
B24 | 15.8 |  |  | 
B25 |  |  |  | specificity ELISA, fold over background [4]: 1.1 fold over background; specificity ELISA, percent binding relative to Acro S1 [4]: 93.3%; specificity ELISA, fold over background [5]: 1.2 fold over background; specificity ELISA, percent binding relative to Acro S1 [5]: 97.2%
B26 | 31.4 | 29.9 |  | 
B27 |  |  | 1.08 | 
B28 |  |  | 1.14 | 
